Results published in the supplement of paper PMC10126150.
± gives the standard deviation of the averaged measurements.

Test system: ATP
Test: switch fluorescence ratio, 500 uM ATP over buffer (Cy3 cluster intensity, sum of 5 cycles each) (fold (ratio)); higher = stronger signal-on switching upon ATP binding; sequences stand for … in TCGTCGGCAGCGTCAGATGTGTATAAGAGACAGTTTTTTTTTTTTTTTTTTTTTTTTT…TC
Settings: aptamer strand: ATP DNA aptamer (quencher-CACCTGGGGGAGTATTGCGGAGGAAGG + anchor), 100 nM annealed; ATP concentration: 500 uM
Procedure, shortened: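 Cy3-labelled switching-strand clusters on a modified Illumina MiSeq flow-cell were annealed to 100 nM quencher-labelled ATP aptamer, imaged in selection buffer, then imaged after 15 min with 500 uM ATP at 22 °C. Five buffer/ATP cycles ran, with NaOH stripping and re-annealing between them. The fluorescence ratio is summed target-cycle over summed buffer-cycle Cy3 intensity per cluster, averaged per switch-domain sequence. Clusters outside 100-1000 RFU were excluded.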
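Also: ATP exposure 15 min at 22 °C before imaging.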

CCAGGTAACT and CGCGTTTTTT are within error of each other in switch fluorescence ratio: 1.05 ± 0.018 for the first, 1.07 ± 0.12 for the second.

Going from TATCGGAAGG to ACGGTTTTAC, the switch fluorescence ratio rises from 0.9901 ± 0.0013 to 1.12 ± 0.012.

Compared with ATTATTAGGA, TTGAAGGCAA is higher in switch fluorescence ratio: 1.04 ± 0.088 for the first, 1.59 ± 0.076 for the second.

TATTTGCACG and TATAAGGGAG are within error of each other in switch fluorescence ratio: 1.07 ± 0.062 for the first, 0.996 ± 0.023 for the second.

First: TTTCACGCAA
Second: AACTAGGGGA
The switch fluorescence ratio of the first is higher: 3.98 ± 1.1 for the first, 1.11 ± 0.13 for the second.

Going from CCGGAAAGAG to TTTTTTTCCG, the switch fluorescence ratio falls from 1.06 ± 0.02 to 1.012 ± 0.0081.

TTTTTTGTCA and TAAGGAGAGG are within error of each other in switch fluorescence ratio: 1.02 ± 0.042 for the first, 1.01 ± 0.027 for the second.

First: CAGTAGCTGT
Second: GTTTGAGGTG
The switch fluorescence ratio of the first is higher: 1.204 ± 0.0022 for the first, 1 ± 0.044 for the second.

GGGGTGATGG and GGTATAATTG are the same in switch fluorescence ratio: 1.02 ± 0.02 for the first, 1.021 ± 0.0062 for the second.

ATTAAATGAG and GCGGTCAGGG are the same in switch fluorescence ratio: 1.01 ± 0.022 for the first, 1.01 ± 0.016 for the second.

AAGATTGGGT and GACATTGTGT are within error of each other in switch fluorescence ratio: 1 ± 0.049 for the first, 0.98604 ± 0.00074 for the second.

TTAGAGGTTA and TGTAATGTGA are within error of each other in switch fluorescence ratio: 0.98609 ± 0.00054 for the first, 1.07 ± 0.14 for the second.

Going from AATAGGAATT to AGGGTCGGCG, the switch fluorescence ratio rises from 0.9708 ± 0.0059 to 1.01 ± 0.027.

GGTCCTGGGC and TCGTTGGGGA are within error of each other in switch fluorescence ratio: 1.01 ± 0.013 for the first, 1 ± 0.018 for the second.

Compared with ATTAATTCCG, TTTGTTTCCA is lower in switch fluorescence ratio: 1.02 ± 0.0097 for the first, 0.962 ± 0.012 for the second.

AGGTGGGGGA and TGGCGGGGTC are within error of each other in switch fluorescence ratio: 0.995 ± 0.031 for the first, 0.9992 ± 0.0094 for the second.

TTCTGCAGGG and TAGGTGGGGT are within error of each other in switch fluorescence ratio: 0.997 ± 0.043 for the first, 0.971 ± 0.016 for the second.

CGGTGTTTGG and TAAATTTGAG are within error of each other in switch fluorescence ratio: 0.972 ± 0.015 for the first, 0.991 ± 0.011 for the second.

Going from AAAAGTTACA to TACCGACATA, the switch fluorescence ratio rises from 1.027 ± 0.0092 to 1.189 ± 0.0084.

AAAGGGTTGC and TATTCGCCTT are within error of each other in switch fluorescence ratio: 0.999 ± 0.041 for the first, 1.11 ± 0.12 for the second.

Going from TCACCGCACG to CAGGAGGGGA, the switch fluorescence ratio falls from 2.2 ± 0.36 to 1.01 ± 0.011.

CTAGGTCGGA and AATGCCCGGC are within error of each other in switch fluorescence ratio: 1.01 ± 0.021 for the first, 1.02 ± 0.11 for the second.

Compared with AGGCAATGTC, TTGACGTGTT is lower in switch fluorescence ratio: 1.48 ± 0.17 for the first, 1.03 ± 0.047 for the second.

Going from CTTTGGGGAC to GGTGCGTAGG, the switch fluorescence ratio falls from 1.055 ± 0.006 to 1 ± 0.012.

GGAGTCGGGC and TAGTTGAACA are within error of each other in switch fluorescence ratio: 0.981 ± 0.04 for the first, 1.01 ± 0.021 for the second.

GTGGATGCAT and CCGATAGGGG are within error of each other in switch fluorescence ratio: 1.01 ± 0.022 for the first, 1.05 ± 0.093 for the second.

GGATTTATTT and TCTGGGAATA are within error of each other in switch fluorescence ratio: 1.06 ± 0.026 for the first, 1.04 ± 0.023 for the second.

AATTCTCTGT and AACGATATTC are within error of each other in switch fluorescence ratio: 1.03 ± 0.066 for the first, 1.07 ± 0.03 for the second.

Going from TACCCCAATT to TAGGAGGGGT, the switch fluorescence ratio falls from 1.068 ± 0.0037 to 0.999 ± 0.022.

TAAGGCCACG and GATATGGATT are within error of each other in switch fluorescence ratio: 0.9975 ± 0.0099 for the first, 0.977 ± 0.016 for the second.

GGATGGGCAA and CTTTTTATTT are within error of each other in switch fluorescence ratio: 1.026 ± 0.0026 for the first, 1.14 ± 0.22 for the second.

GGAAGATACG and TCCGAATTGG are within error of each other in switch fluorescence ratio: 1.03 ± 0.015 for the first, 1.05 ± 0.022 for the second.

Compared with AGCAATTGGT, TCTATGATAG is lower in switch fluorescence ratio: 1.062 ± 0.0086 for the first, 0.971 ± 0.013 for the second.

First: TCTTATAATT
Second: TTCGTAGTTT
The switch fluorescence ratio of the first is higher: 1.01 ± 0.011 for the first, 0.964 ± 0.023 for the second.

TGAAATGATC and TATAGAGGGG are within error of each other in switch fluorescence ratio: 1.001 ± 0.0098 for the first, 1.07 ± 0.15 for the second.

Going from CGGAGTTGGG to GGCGGCAAAA, the switch fluorescence ratio rises from 0.9863 ± 0.0044 to 1.07 ± 0.042.

CCGGGGTCTG and AGACAACGGC are within error of each other in switch fluorescence ratio: 0.995 ± 0.035 for the first, 1.02 ± 0.03 for the second.

GTTAGTATAA and TGATACTGAT are within error of each other in switch fluorescence ratio: 0.9894 ± 0.0074 for the first, 1.02 ± 0.058 for the second.

AACTGGCTGC and AAAAGAAAGG are within error of each other in switch fluorescence ratio: 0.993 ± 0.061 for the first, 0.985 ± 0.012 for the second.

CAAATACTTG and TTGCAGTAGC are within error of each other in switch fluorescence ratio: 1.04 ± 0.019 for the first, 1.05 ± 0.033 for the second.

CGGAAAGAAA and GGGCAGGGGA are within error of each other in switch fluorescence ratio: 1.06 ± 0.058 for the first, 1.17 ± 0.35 for the second.

TAGCGGTCTC and AGAATTTTTG are within error of each other in switch fluorescence ratio: 1.03 ± 0.032 for the first, 0.963 ± 0.075 for the second.

TTGGTGAGTT and GCAATTGTTT are within error of each other in switch fluorescence ratio: 0.981 ± 0.029 for the first, 1.02 ± 0.039 for the second.

ATGAATGTTA and GACTCGAGGC are within error of each other in switch fluorescence ratio: 1.006 ± 0.0075 for the first, 1.05 ± 0.06 for the second.

AGTTACAGGG and GGGTTCTTC are the same in switch fluorescence ratio: 1.05 ± 0.019 for the first, 1.05 ± 0.1 for the second.

Going from TACTCGTCTA to GAAGTGATAT, the switch fluorescence ratio rises from 1.02 ± 0.018 to 1.206 ± 0.0013.

TAATGGGGGC and AAGCTCGTTG are within error of each other in switch fluorescence ratio: 0.994 ± 0.018 for the first, 1.01 ± 0.031 for the second.

CCGGGGATTG and CGTTGCGGTA are within error of each other in switch fluorescence ratio: 1.01 ± 0.027 for the first, 1.04 ± 0.026 for the second.

GTTTGTTAGG and AATTTGTGTT are within error of each other in switch fluorescence ratio: 1.012 ± 0.0095 for the first, 0.992 ± 0.01 for the second.

First: TAAATTTCGA
Second: CTAGATTCGC
The switch fluorescence ratio of the first is higher: 1.04 ± 0.018 for the first, 0.984 ± 0.025 for the second.

CTCGGGATCA and TAGAGGTGGG are within error of each other in switch fluorescence ratio: 1.011 ± 0.0028 for the first, 1.21 ± 0.34 for the second.

Going from CGAGGCACAG to ATTTCGGTGG, the switch fluorescence ratio falls from 1.53 ± 0.052 to 1.06 ± 0.044.

TATAGGGATT and CAGATGGTTG are the same in switch fluorescence ratio: 0.984 ± 0.015 for the first, 0.9835 ± 0.0041 for the second.

Compared with TCTTGGGACG, GCTCAGGGGA is higher in switch fluorescence ratio: 0.979 ± 0.042 for the first, 1.21 ± 0.097 for the second.

CGGGGCCTGG and GCACTTGTTT are within error of each other in switch fluorescence ratio: 0.959 ± 0.021 for the first, 1 ± 0.028 for the second.

First: CGAAGAAAGG
Second: TTCGGTTTTT
The switch fluorescence ratio of the first is higher: 1.16 ± 0.013 for the first, 1.02 ± 0.011 for the second.

CTGGAGGACT and TGGATGTATG are within error of each other in switch fluorescence ratio: 1.026 ± 0.0098 for the first, 0.99 ± 0.04 for the second.

First: AGATTAGGAC
Second: TTCAGGTAAC
The switch fluorescence ratio of the first is lower: 0.97145 ± 0.00024 for the first, 1.054 ± 0.0022 for the second.

TTGTCGTATC and ATCGTATTGT are within error of each other in switch fluorescence ratio: 1 ± 0.019 for the first, 0.993 ± 0.03 for the second.

AAAGAGCTAG and CACGGAGGGG are within error of each other in switch fluorescence ratio: 1 ± 0.053 for the first, 0.9875 ± 0.0095 for the second.

TAGAGACGGA and ATATGGCTTT are within error of each other in switch fluorescence ratio: 1.0278 ± 0.001 for the first, 1.02 ± 0.013 for the second.

TGACGTTCAG and TACGCGGGCA are within error of each other in switch fluorescence ratio: 0.996 ± 0.02 for the first, 1.07 ± 0.11 for the second.

AGAATACGGA and TTTATGCGGG are within error of each other in switch fluorescence ratio: 1.05 ± 0.018 for the first, 1.02 ± 0.048 for the second.

Compared with AATTAGTGTG, AAGCAGTACC is higher in switch fluorescence ratio: 0.987 ± 0.022 for the first, 3.24 ± 0.72 for the second.

TACTTGAGCG and GACTTTTCTT are within error of each other in switch fluorescence ratio: 1.02 ± 0.02 for the first, 0.971 ± 0.033 for the second.

GGCGGGTAAT and TGATTGATAT are within error of each other in switch fluorescence ratio: 1.04 ± 0.09 for the first, 1.01 ± 0.012 for the second.

AAAGGCCAGT and TTAGACATTT are within error of each other in switch fluorescence ratio: 1.03 ± 0.018 for the first, 1.01 ± 0.026 for the second.

GTTCGCAAAT and TTGAGCATAT are within error of each other in switch fluorescence ratio: 1.09 ± 0.063 for the first, 2.12 ± 1.2 for the second.

TGGGAGCCCG and TTGGAGGTAG are within error of each other in switch fluorescence ratio: 0.9853 ± 0.0034 for the first, 1 ± 0.037 for the second.

GAAGGGATTA and TTTCGCCATG are within error of each other in switch fluorescence ratio: 1.01 ± 0.04 for the first, 0.995 ± 0.026 for the second.

TGTGATTAGG and CCTTATAATT are within error of each other in switch fluorescence ratio: 0.996 ± 0.03 for the first, 1.02 ± 0.035 for the second.

CTAAAAACTA and AATTGTAGGT are within error of each other in switch fluorescence ratio: 0.978 ± 0.013 for the first, 0.9731 ± 0.0046 for the second.

First: AATTAGTTGC
Second: ATAGGAAATC
The switch fluorescence ratio of the first is lower: 0.989 ± 0.016 for the first, 2.74 ± 0.75 for the second.

Going from TTCGCTACGG to GAAGTTACGG, the switch fluorescence ratio rises from 1.05 ± 0.029 to 1.11 ± 0.015.

TTCGTCGGTA and TCTTGCATAA are within error of each other in switch fluorescence ratio: 1.09 ± 0.15 for the first, 1.07 ± 0.076 for the second.

Going from AAAGGTGCCA to TTTGATGTGT, the switch fluorescence ratio falls from 1.05 ± 0.015 to 0.997 ± 0.032.

CGCTATTGTT and CGAGTTGGTA are within error of each other in switch fluorescence ratio: 1.028 ± 0.0065 for the first, 1.01 ± 0.025 for the second.

Compared with CAATATCTCC, ATCATGCCTA is lower in switch fluorescence ratio: 2.29 ± 0.16 for the first, 0.989 ± 0.033 for the second.

Sequence GTCAAAGATT has a switch fluorescence ratio of 0.98 ± 0.014.
